What all share (assay): FRET or BRET
On the technique in general: BRET reads energy transfer from a luciferase to a nearby fluorophore.

For assay [1], the target named is Gβ3 with cpVenus-Gγ9 (Gβγ of the G13 BRET sensor) (UniProt P16520).
Assay [2] addresses cpVenus-tagged Gβγ of the G15 BRET sensor (UniProt P62873).
Assay [3] has as its target cpVenus-tagged Gβγ of the Gs BRET sensor (UniProt P62873).

3 substances from article doi:10.1101/2021.02.05.429900 can be followed below.

Chain of UniProt P16520 (P16520 whole entry, chain 1 of 2): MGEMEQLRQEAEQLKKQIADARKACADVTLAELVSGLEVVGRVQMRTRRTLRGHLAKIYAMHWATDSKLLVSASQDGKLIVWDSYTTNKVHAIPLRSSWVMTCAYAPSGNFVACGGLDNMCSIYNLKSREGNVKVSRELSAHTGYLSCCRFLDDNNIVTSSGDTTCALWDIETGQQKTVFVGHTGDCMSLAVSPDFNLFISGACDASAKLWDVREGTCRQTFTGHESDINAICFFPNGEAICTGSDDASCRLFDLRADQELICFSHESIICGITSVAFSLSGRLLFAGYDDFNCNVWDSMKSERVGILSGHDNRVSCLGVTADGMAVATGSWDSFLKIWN
Chain of UniProt P16520 (O14610 whole entry, chain 2 of 2, further chain): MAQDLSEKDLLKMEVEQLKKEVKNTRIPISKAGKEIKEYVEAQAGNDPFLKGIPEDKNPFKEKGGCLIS

For the substance “Gα13-Nluc (G13 BRET sensor) (from UniProt Q14344 1-377) (natural protein)”, the amplitude of the BRET response (ΔBRET) on agonist activation of TBXA2R in assay [1] is -35%.
On to “Nluc-tagged Gα15 (G15 BRET sensor) (from UniProt P30679 1-374) (natural protein)”, for which the amplitude of the BRET response (ΔBRET) on agonist activation of TBXA2R in assay [2] was -10%.
In the case of “Nluc-tagged Gαs (Gs BRET sensor) (from UniProt P63092 1-394) (natural protein)”, in assay [3], the amplitude of the BRET response (ΔBRET) on agonist activation of β2AR was -10%.
